Holding throughout (test): SEC; analytical SEC of the purified protein alone; oligomeric state in solution
(In gel filtration, larger molecules generally elute earlier.)

Assay [1] addresses WsmS (Streptomyces sp. CB02120-2).
Assay [2] concerns the target WsmD (Streptomyces sp. CB02120-2).
For assay [3], the target named is WsmE (Streptomyces sp. CB02120-2).
In assay [4] the target is LnmF.
Assay [5] concerns the target WsmR KS6 (Streptomyces sp. CB02120-2).

A word on the stoichiometry N: it is a count of units in the complex or per binding partner. In assay [1], WsmS (enzyme) displayed a stoichiometry N of 2.
WsmD (enzyme) returned a stoichiometry N in assay [2] of 2.
WsmE (enzyme) registered a stoichiometry N in assay [3] of 3.
Turning to LnmF (enzyme), the stoichiometry N in assay [4] amounted to 3.
As to WsmR KS6 (domain or fragment), the stoichiometry N in assay [5] worked out at 2.

(Values after paper PMC7618002.)
